The values below are quoted from earlier work in publication PMC8335159.

What is called Kd is the concentration at which binding is half-saturated. Broadly, the Ki is the equilibrium dissociation constant of an inhibitor or competing ligand from its target.

For series [1], the target named is TIMP-3 cyclic peptide 61-70 (Homo sapiens).
Series [2] addresses TIMP-3 cyclic peptide 62-68 (Homo sapiens).
Series [3] has as its target TIMP-3 cyclic peptide 60-70 (Homo sapiens).
Series [4] deals with VWF peptide 1660-1668 (Homo sapiens) (UniProt P04275).

In the case of ADAM-17 (from UniProt P78536), the figures for the Kd in series [1], in series [2] and in series [3] were 3.7 µM, 25 µM and 18 µM, respectively.
For ADAMTS-13 (from UniProt Q76LX8), in series [4], the inhibition constant (Ki) was 1 µM.
